Earlier results as cited in patent US10663473B2, “Method of identifying a status of a mucosal intestinal epithelial barrier to improve treatment of inflammatory bowel disease” (Maximus Diagnostic Technologies LLC, priority 2016, dated 2020).

Tested on: IBD patients
Conditions: all CD patients

B1: certolizumab pegol: anti-TNF agent, trade name Cimzia, sold by UCB S.A. (antibody, chains of the INN, looked up, V domains shown)
VH: EVQLVESGGGLVQPGGSLRLSCAASGYVFTDYGMNWVRQAPGKGLEWMGWINTYIGEPIYADSVKGRFTFSLDTSKSTAYLQMNSLRAEDTAVYYCARGYRSYAMDYWGQGTLVTVSS
VL: DIQMTQSPSSLSASVGDRVTITCKASQNVGTNVAWYQQKPGKAPKALIYSASFLYSGVPYRFSGSGSGTDFTLTISSLQPEDFATYYCQQYNIYPLTFGQGTKVEIK
modifications: Fab' PEG
In the case of B1, the “long-term clinical response rate” value is given as 50%.
